The target in experiment [1] is recombinant mouse Galectin-9 (R&D Systems) (mouse) (UniProt O08573). The experiment in a line: Control in the bead flow cytometry assay: Dectin-1 IgG Fc beads + rGal-9, stained with the fluorescent isotype antibody instead of αGal-9 (row + + - + -) [cont.) F]. In general terms: In flow cytometry, cells or beads pass a laser one at a time.
Experiment [2] addresses 60S ribosomal protein L18 (mouse) (UniProt P35980). The experiment in a line: Dectin-1 Fc affinity purification from KPC cell lysate, mass spectrometry.
Another experiment addresses Clusterin (mouse) (UniProt Q06890). Described as above.
The target in experiment [3] is Cytochrome b-c1 complex subunit 2, mitochondrial (mouse) (UniProt Q9DB77). Described as above.
Experiment [4] has as its target Dolichyl-diphosphooligosaccharide-protein glycosyltransferase subunit 1 (mouse) (UniProt Q91YQ5). The experiment is described as above.
The target of a further experiment is Eef2 protein (mouse) (UniProt P58252). The description is as above.
In experiment [5] the target is Elongation factor 1-alpha 1 (mouse) (UniProt P10126). The experiment is described as above.
Experiment [6] has as its target Elongation factor 1-gamma (mouse) (UniProt Q9D8N0). The description is as above.
In a further experiment the target is Endoplasmin (mouse) (UniProt P08113). Described as above.
Experiment [7] addresses Isoform 2 of Microtubule-associated protein 4 (mouse) (UniProt P27546). Described as above.
The target of another experiment is Peroxiredoxin-1 (mouse) (UniProt P35700). The experiment is described as above.
The target of experiment [8] is Polyadenylate-binding protein 1 (mouse) (UniProt P29341). The description is as above.
Experiment [9] deals with Probable ATP-dependent RNA helicase DDX17 (mouse) (UniProt Q501J6). The description is as above.
The next experiment deals with Prohibitin (mouse) (UniProt P67778). The experiment is described as above.
Experiment [10] has as its target Putative uncharacterized protein (Sqrdl) (mouse) (UniProt Q9R112). Described as above.
The target of experiment [11] is Sodium/potassium-transporting ATPase subunit alpha-1 (mouse) (UniProt Q8VDN2). The experiment is described as above.

Chain of human IgG Fc-conjugated Dectin-1 fusion protein (murine Dectin-1 IgG Fc; fc-mdec1a, InvivoGen) (Q6QLQ4 69-244 limits assumed): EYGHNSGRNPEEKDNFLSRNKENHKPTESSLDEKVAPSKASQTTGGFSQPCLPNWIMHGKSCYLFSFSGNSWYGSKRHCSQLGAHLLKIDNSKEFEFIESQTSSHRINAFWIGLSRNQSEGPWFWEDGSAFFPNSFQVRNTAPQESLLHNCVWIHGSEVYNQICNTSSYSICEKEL
Chain of Clusterin (mouse) (Q06890 22-448 limits assumed): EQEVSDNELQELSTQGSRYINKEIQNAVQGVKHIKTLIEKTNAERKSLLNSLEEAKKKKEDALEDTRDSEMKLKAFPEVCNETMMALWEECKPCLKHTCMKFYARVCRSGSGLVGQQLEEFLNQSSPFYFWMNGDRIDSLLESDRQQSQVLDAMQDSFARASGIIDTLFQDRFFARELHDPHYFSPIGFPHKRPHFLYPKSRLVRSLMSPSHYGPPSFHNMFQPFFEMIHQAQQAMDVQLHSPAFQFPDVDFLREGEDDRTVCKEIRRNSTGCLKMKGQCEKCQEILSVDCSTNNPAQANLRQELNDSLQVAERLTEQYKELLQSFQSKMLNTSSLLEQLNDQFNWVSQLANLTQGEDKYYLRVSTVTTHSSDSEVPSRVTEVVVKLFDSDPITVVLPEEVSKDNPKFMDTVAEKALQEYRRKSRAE
Chain of Cytochrome b-c1 complex subunit 2, mitochondrial (mouse) (Q9DB77 15-453 limits assumed, one chain of several): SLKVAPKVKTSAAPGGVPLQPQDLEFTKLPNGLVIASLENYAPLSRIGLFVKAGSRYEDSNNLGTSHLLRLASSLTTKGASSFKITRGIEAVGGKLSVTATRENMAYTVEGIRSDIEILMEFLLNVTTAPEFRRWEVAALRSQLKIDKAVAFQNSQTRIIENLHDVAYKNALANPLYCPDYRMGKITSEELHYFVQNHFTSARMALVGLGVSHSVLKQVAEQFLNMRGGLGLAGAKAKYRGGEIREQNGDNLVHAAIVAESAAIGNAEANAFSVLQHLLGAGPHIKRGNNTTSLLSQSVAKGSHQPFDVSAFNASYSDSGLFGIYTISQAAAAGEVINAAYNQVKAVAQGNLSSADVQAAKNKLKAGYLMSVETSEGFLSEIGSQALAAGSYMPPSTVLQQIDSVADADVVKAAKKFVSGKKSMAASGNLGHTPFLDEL
Chain of Putative uncharacterized protein (Sqrdl) (mouse) (Q9R112 whole entry): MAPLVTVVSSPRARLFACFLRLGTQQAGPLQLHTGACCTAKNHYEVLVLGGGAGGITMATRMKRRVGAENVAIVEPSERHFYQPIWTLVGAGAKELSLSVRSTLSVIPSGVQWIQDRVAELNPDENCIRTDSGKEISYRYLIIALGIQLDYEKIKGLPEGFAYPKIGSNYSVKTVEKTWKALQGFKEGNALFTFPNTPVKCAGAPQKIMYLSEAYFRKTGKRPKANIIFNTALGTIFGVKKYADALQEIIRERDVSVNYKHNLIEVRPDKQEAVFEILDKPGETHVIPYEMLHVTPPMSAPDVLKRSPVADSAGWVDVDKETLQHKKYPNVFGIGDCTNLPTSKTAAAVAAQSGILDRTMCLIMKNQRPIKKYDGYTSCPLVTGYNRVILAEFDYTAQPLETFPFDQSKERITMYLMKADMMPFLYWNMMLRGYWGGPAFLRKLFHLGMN
Chain of Peroxiredoxin-1 (mouse) (P35700 2-199 limits assumed): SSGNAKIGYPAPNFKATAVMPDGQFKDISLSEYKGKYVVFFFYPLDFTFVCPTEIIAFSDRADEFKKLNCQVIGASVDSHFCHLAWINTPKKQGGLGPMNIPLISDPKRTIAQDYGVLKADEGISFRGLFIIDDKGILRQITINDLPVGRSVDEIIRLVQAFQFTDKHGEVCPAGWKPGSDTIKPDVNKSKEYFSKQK
Chain of Elongation factor 1-gamma (mouse) (Q9D8N0 2-437 limits assumed): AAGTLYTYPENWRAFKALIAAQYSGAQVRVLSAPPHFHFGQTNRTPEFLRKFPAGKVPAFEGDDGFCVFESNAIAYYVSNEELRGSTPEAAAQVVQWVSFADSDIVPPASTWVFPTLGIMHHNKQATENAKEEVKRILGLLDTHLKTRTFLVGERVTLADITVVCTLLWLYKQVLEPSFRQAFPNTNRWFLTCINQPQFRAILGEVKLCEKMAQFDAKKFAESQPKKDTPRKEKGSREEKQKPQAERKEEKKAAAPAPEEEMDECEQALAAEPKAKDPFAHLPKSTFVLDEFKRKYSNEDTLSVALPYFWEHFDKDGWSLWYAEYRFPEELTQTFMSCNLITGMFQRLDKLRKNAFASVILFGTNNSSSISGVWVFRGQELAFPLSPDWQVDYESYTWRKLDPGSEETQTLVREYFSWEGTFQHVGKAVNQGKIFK
Chain of Endoplasmin (mouse) (P08113 22-802 limits assumed): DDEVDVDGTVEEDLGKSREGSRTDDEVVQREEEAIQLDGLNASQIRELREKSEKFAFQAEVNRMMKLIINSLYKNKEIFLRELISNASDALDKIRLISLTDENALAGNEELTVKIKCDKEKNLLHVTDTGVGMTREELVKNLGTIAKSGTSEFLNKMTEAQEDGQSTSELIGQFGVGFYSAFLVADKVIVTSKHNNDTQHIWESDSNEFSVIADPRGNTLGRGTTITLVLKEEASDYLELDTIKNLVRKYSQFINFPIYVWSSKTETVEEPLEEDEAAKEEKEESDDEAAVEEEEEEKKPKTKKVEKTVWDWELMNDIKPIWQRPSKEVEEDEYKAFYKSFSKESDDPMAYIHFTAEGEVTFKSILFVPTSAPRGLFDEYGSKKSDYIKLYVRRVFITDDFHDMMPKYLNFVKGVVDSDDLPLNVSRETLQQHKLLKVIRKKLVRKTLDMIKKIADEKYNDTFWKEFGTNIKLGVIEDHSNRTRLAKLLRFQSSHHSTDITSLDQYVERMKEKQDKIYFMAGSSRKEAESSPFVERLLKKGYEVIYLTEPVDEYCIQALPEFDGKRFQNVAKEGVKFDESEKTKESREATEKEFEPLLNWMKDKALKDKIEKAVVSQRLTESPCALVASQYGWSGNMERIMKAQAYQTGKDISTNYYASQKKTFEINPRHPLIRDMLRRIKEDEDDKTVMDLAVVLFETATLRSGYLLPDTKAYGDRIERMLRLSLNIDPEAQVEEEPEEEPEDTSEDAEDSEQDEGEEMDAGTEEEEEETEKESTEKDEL
Chain of Prohibitin (mouse) (P67778 2-272 limits assumed): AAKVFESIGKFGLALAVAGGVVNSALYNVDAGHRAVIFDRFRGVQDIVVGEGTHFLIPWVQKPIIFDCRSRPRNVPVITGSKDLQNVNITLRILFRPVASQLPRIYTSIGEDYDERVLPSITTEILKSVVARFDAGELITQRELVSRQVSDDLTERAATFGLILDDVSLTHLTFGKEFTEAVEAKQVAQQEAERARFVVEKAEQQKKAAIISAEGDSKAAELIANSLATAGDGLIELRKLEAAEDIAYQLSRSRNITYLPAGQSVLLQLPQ
Chain of Isoform 2 of Microtubule-associated protein 4 (mouse) (P27546 other isoform, or with tags, fused parts or gaps limits assumed): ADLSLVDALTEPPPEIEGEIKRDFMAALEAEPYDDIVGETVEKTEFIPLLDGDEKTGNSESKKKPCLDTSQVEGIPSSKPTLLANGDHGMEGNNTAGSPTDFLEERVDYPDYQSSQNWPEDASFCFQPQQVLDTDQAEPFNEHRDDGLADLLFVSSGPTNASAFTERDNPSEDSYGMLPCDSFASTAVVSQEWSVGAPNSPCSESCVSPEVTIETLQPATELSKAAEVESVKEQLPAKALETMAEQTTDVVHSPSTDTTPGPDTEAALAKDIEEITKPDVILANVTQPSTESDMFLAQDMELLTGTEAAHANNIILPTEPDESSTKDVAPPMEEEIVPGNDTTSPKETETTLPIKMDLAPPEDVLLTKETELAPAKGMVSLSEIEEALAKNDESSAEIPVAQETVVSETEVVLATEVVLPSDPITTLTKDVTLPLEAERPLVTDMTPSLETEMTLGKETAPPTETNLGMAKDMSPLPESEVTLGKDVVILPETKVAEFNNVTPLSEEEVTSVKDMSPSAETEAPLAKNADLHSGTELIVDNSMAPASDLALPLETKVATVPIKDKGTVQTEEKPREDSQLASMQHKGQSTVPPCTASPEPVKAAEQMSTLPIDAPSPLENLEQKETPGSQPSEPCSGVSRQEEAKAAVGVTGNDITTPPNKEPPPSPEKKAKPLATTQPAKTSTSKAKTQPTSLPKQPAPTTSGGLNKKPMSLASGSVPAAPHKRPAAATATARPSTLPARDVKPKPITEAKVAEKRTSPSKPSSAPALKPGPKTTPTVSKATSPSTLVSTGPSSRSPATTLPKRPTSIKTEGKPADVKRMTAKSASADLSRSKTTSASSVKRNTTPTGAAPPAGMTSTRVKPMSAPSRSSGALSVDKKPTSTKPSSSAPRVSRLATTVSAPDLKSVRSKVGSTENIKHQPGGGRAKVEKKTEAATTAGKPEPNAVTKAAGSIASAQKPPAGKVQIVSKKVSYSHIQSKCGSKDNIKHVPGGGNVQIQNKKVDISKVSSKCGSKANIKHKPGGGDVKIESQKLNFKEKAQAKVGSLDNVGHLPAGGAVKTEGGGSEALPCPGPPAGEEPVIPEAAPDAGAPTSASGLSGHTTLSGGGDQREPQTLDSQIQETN
Chain of Probable ATP-dependent RNA helicase DDX17 (mouse) (Q501J6 whole entry): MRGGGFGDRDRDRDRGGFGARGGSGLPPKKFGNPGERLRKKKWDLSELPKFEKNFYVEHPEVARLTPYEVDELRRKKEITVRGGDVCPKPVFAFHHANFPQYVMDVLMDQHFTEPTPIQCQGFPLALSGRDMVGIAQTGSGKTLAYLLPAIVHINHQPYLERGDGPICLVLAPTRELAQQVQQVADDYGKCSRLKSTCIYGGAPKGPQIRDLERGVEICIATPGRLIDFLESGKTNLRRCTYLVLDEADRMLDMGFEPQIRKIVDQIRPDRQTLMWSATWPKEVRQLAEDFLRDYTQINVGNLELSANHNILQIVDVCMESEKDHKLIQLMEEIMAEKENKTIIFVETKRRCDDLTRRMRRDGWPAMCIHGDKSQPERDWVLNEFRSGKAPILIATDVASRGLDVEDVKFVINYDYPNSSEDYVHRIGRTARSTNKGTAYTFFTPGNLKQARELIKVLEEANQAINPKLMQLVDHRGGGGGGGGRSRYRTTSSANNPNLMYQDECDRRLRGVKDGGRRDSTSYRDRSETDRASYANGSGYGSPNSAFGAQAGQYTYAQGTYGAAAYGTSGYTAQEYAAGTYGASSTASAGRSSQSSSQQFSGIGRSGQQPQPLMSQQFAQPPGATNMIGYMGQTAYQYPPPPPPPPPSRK

Turning to “fluorescently-conjugated isotype antibody”, the MFI in [1] worked out at 669.

Take “human IgG Fc-conjugated Dectin-1 fusion protein (murine Dectin-1 IgG Fc; fc-mdec1a, InvivoGen) (from UniProt Q6QLQ4 69-244) (Fc fusion)”: the # PSM (IP1) (peptide spectral matches) came out at 4 in experiment [2]; 8 in the experiment with Clusterin (mouse); 8 in experiment [3]; 7 in experiment [4]; 23 with Eef2 protein (mouse); 23 in experiment [5]. The # PSM (IP1) (peptide spectral matches) in experiment [6] is 11; in the experiment with Endoplasmin (mouse), 30; in experiment [7] it was 6; in the experiment with Peroxiredoxin-1 (mouse), 7; in experiment [8] it was 13; in [9], 7. The # PSM (IP1) (peptide spectral matches) with Prohibitin (mouse) worked out at 5; in experiment [10] it was 6; in experiment [11] it was 13. Moreover, the # PSM (IP2) (peptide spectral matches) in experiment [2] is 10; in the experiment with Clusterin (mouse), 9; in experiment [3], 8; in experiment [4], 14; with Eef2 protein (mouse), 31; in [5], 48. For the same substance, the # PSM (IP2) (peptide spectral matches) in [6] was 11; in the experiment with Endoplasmin (mouse), 8; in experiment [7], 23; with Peroxiredoxin-1 (mouse) it was 16; in experiment [8], 92; in experiment [9] it was 36. Besides, the # PSM (IP2) (peptide spectral matches) with Prohibitin (mouse) stood at 6; in [10], 19; in experiment [11] it was 14.
